Data reported in patent publication US20060057138A1 (published 2006).

T1: recombinant human Tie1-Fc (Tie1 extracellular domain fused to human Fc) (human, UniProt P35590 25-759)
T1 construct: also called human Tie1-Fc fusion protein; not shown: human Fc
T1 sequence: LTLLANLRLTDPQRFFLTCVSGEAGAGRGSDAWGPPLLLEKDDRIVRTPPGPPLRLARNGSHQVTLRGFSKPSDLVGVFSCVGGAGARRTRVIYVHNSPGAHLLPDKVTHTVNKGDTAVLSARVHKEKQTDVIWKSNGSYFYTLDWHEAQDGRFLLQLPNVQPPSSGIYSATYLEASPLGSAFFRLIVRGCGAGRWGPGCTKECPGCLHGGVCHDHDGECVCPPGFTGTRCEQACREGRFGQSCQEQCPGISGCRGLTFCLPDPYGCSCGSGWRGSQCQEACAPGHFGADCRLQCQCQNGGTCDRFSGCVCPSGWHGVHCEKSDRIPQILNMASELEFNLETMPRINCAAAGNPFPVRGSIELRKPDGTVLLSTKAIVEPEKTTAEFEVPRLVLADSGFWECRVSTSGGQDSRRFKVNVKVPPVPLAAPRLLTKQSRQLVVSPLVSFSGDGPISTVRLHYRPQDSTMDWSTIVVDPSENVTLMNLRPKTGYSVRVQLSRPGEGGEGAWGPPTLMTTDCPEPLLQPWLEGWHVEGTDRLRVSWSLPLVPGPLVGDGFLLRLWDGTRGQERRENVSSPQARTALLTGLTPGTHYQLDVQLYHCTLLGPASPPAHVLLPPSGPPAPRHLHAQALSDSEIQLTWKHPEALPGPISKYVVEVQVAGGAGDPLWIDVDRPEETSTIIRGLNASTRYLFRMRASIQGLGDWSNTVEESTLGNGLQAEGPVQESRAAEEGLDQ

T2: recombinant mouse Tie1-Fc (mouse, UniProt Q06806 23-755)
T2 construct: extracellular domain; also called Mouse Tie 1-Fc antigen; mouse Tie1-Fc fusion protein; not shown: Fc
T2 sequence (looked up): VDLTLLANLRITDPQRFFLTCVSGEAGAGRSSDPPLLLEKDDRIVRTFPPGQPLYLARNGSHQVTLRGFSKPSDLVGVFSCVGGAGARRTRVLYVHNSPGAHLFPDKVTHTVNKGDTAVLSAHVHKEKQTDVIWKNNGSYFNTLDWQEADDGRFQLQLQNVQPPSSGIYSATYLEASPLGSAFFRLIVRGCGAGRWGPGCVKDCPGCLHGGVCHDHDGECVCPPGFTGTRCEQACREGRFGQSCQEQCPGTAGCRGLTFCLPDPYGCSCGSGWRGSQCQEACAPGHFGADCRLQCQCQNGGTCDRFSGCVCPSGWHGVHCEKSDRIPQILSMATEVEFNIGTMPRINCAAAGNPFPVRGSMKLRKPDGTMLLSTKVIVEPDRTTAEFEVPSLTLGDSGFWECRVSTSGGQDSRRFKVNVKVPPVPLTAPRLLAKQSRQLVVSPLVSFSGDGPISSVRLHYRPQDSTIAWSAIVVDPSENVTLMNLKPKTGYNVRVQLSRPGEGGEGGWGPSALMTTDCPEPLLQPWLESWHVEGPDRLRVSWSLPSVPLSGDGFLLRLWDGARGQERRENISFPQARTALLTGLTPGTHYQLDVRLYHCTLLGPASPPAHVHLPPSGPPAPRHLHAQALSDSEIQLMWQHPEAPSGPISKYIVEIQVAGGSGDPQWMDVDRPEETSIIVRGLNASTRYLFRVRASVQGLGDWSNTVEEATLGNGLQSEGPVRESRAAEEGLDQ


Legend:
[1] = molecular target: T1, recombinant human Tie1-Fc (Tie1 …); experiment: SPR (BIAcore 3000), CM5 chip; format of this row not stated
Protocol: (§1) Affinity analysis of the Fab and IgGs was performed using surface plasmon resonance using a BIAcore 3000 instrument. For this analysis both dimeric (Tie1-Fc fusion protein) and monomeric (Tie1-HIS) versions of the extracellular domain of the Tie1 were used. The sensor chips used in these experiments were CM5 (dextran-coated) which allow immobilization of proteins to the chip via standard amine coupling chemistries. The concentration of flowed antibody was determined using a surface plasmon resonance based method. Using a high-density protein A sensor chip, under mass transport limited conditions, the response signal is dependent only on the concentration of the antibody in the sample under test. This approach allows a precise determination of the antibody concentration, a parameter important for accurate determination of the KD.
470 RUs of Tie1 HIS protein were coated on a CM5 sensor chip and 5, 20, 100, and 500 nM of the Fab flowed over the chip at four different flow rates ([…]), rates in which the system is not mass transport limited. Kinetic data was typically determined using a range of analyte concentrations and three different chip coating densities. The data from the lowest coating density that gave a good signal was typically chosen, this was often in a range from 50-100 RUs. Using such low coating densities allowed the sensor curves to be fit using BIAEVALUATION™ 3.0 software to a 1:1 model, often even when using a bivalent analyte (IgG or Tie1-Fc fusion protein). For bivalent analytes, when fit to a 1:1 model was not possible, the curves were fit using a 2:1 model.

[2] = molecular target: T1, recombinant human Tie1-Fc (Tie1 …); experiment: SPR, Tie1-Fc immobilized on CM5 sensor chip, bivalent anti-Tie1 as analyte
Protocol: as §1

[3] = molecular target: T2, recombinant mouse Tie1-Fc; experiment: SPR, Tie1-Fc immobilized on the sensor chip, Fab as analyte
Protocol: as §1

[4] = molecular target: T1, recombinant human Tie1-Fc (Tie1 …); experiment: as above
Protocol: as §1

Kd [1] [nM]	koff [1] [s⁻¹]	kon [1] [M⁻¹ s⁻¹]	Kd [2] [nM]	fold increase in affinity against the anti-Tie1 Fab [2] [fold]	Kd [3] [nM]	Kd [4] [nM]	Binder
5.4	4.47e-05	8260					parental E3 Fab (Fab, V domains shown, also called E3 Fab parental; parental Fab E3) VH: EVQLLESGGGLVQPGGSLRLSCAASGFTFSMYGMVWVRQAPGKGLEWVSVISPSGGNTGYADSVKGRFTISRDNSKNTLYLQVNSLRAEDTAVYYCARAPRGYSYGYYYWGQGTLVTVSS VL: DIQMTQSPLSLSASVGDRVTITCRASQGIGHYLAWYQQKPGKVPKLLIYTASTLQSGVPSRFSGSGSGTDFTLTINSLQPEDVATYYCQQFNSYPHTFGQGTRLDIK
5.2	3.67e-05	7090	0.2	> 10			DX-2220 (full length, IgG1, germlined human anti-Tie1 antibody E3b) (antibody, V domains shown, also called E3b-IgG1; germlined E3b IgG1) VH: EVQLLESGGGLVQPGGSLRLSCAASGFTFSMYGMVWVRQAPGKGLEWVSVISPSGGNTGYADSVKGRFTISRDNSKNTLYLQMNSLRAEDTAVYYCARAPRGYSYGYYYWGQGTLVTVSS VL: DIQMTQSPSSLSASVGDRVTITCRASQGIGHYLAWYQQKPGKVPKLLIYTASTLQSGVPSRFSGSGSGTDFTLTISSLQPEDVATYYCQQFNSYPHTFGQGTRLEIKR
4.7	4.41e-05	9300			~3	~3	E3b Fab (heavy and light chain germlined E3 Fab) (Fab, V domains shown, The germlined heavy variable domain is printed with limits only under DX-2240; also called Fab E3b; germlined (E3b)) VH: EVQLLESGGGLVQPGGSLRLSCAASGFTFSMYGMVWVRQAPGKGLEWVSVISPSGGNTGYADSVKGRFTISRDNSKNTLYLQMNSLRAEDTAVYYCARAPRGYSYGYYYWGQGTLVTVSS VL: DIQMTQSPSSLSASVGDRVTITCRASQGIGHYLAWYQQKPGKVPKLLIYTASTLQSGVPSRFSGSGSGTDFTLTISSLQPEDVATYYCQQFNSYPHTFGQGTRLEIK
